Drawing on paper doi:10.1101/2022.01.15.476311, this text covers Kd for one substance.

The test has as its target Toll-like receptor 2 (TLR2) purified protein (UniProt O60603). The test is described as follows: BLI. In general terms: In BLI a coated tip is dipped into the sample, and binding shifts an interference pattern.

The term Kd denotes the equilibrium constant for the complex coming apart.

Sequence of UniProt O60603 (O60603 21-588): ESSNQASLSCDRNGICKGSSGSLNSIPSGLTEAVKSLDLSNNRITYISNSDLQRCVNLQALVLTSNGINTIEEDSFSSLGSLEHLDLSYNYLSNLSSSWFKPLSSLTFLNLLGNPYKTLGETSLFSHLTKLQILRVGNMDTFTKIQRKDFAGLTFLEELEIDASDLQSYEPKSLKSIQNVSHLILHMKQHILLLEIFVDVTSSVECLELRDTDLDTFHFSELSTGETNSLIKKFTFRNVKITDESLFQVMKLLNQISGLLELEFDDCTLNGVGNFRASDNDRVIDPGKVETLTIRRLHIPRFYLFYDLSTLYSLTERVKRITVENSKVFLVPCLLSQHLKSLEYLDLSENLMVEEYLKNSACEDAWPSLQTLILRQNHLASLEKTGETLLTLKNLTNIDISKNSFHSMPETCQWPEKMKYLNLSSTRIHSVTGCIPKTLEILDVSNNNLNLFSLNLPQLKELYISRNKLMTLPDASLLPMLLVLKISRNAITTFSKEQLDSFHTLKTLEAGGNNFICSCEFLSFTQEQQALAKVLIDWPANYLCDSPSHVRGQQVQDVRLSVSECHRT

PAM3CSK4 (peptide): the Kd turned out to be 1.67 µM.
